# Experimental data published in patent US20040053872, “New sequences” (published 2004).
# Columns and labels:
# HIV-1 RT reference [1] = biological target: T1, HIV-1 RT reference (HIV-1 subtype B (clone BH10), UniProt P03366;P03366 P03366:600-1159,P03366:600-1039); experiment: inhibition; second strand DNA synthesis, 33 C
# HIV-1 RT reference [2] = biological target: T1, HIV-1 RT reference; experiment: competition; BIC50, RT binding to primer; 33 C
# HIV-1 RT reference [3] = biological target: T1, HIV-1 RT reference; experiment: competition; BIC50, RT binding to template/primer; 33 C
# HIV-1 RT reference [4] = biological target: T1, HIV-1 RT reference; experiment: inhibition; RNA-dependent DNA polymerisation, preincubated 30 min, 33 C; details: two stem-loops (D and anticodon)
# HIV-1 RT reference [5] = biological target: T1, HIV-1 RT reference; experiment: inhibition; RNA-dependent DNA polymerisation, 33 C; details: hairpin
# [6] = two stem-loops (D and anticodon)
Binder,IC50 (HIV-1 RT reference [1]; [6]) [nM],IC50 (HIV-1 RT reference [2]; [6]) [nM],IC50 (HIV-1 RT reference [3]; [6]) [nM],IC50 (HIV-1 RT reference [4]) [nM],IC50 (HIV-1 RT reference [1]; hairpin) [nM],IC50 (HIV-1 RT reference [2]; hairpin) [nM],IC50 (HIV-1 RT reference [5]) [nM],IC50 (HIV-1 RT reference [3]; hairpin) [nM]
GCUCAGUCGGUAGAGCAUCAGACUUUUAAUCUGAG (ssRNA) [compound 199],40,2,7,6.6,–,–,–,–
"CAGACUUUUAAUCUG (ssRNA, PS all linkages) [compound 198 (15-mer anticodon stem-loop)]",–,–,–,–,550,100,470,900
